Read-outs that look alike come from different tables or passages of the source.
What was measured:
human SIRPα on cells = human SIRPα on cells (human, UniProt P78324 31-504); experiment: cell-based or functional assay
FcγR3A (CD16aV158) [1] = target: T1, FcγR3A (CD16aV158) (human, UniProt P08637 17-254); experiment: cell binding, FcγR-engineered HEK293 cells
T1 construct: whole, on cells

FcγR1 (CD64) = target: T2, FcγR1 (CD64) (human, UniProt P12314 16-374); experiment: cell binding, FcγR-engineered HEK293 cells
T2 construct: whole, on cells

FcγR2B = target: T3, FcγR2B (human, UniProt P31994 43-310); experiment: cell binding, FcγR-engineered HEK293 cells
T3 construct: whole, on cells
T3 sequence (looked up): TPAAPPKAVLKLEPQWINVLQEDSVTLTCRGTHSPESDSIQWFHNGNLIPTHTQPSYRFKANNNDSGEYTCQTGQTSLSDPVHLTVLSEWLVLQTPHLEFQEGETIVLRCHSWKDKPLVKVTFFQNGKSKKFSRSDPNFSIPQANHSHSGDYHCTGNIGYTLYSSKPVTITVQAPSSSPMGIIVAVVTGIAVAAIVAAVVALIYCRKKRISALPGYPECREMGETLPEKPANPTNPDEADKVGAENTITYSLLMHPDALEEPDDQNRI

FcγR3A (CD16aV158) [2] = target: T1, FcγR3A (CD16aV158); experiment: cell binding, FcγR-engineered HEK293 cells; remark: listed apart in the source
[3] = target: T4, rat SIRPα on CHO-K1 cells (rat, UniProt P97710 32-509); experiment: flow cytometry on Rat SIRPα-CHO-K1 cells
T4 construct: whole, on cells; also called rat SIRPα-CHO-K1
T4 sequence (looked up): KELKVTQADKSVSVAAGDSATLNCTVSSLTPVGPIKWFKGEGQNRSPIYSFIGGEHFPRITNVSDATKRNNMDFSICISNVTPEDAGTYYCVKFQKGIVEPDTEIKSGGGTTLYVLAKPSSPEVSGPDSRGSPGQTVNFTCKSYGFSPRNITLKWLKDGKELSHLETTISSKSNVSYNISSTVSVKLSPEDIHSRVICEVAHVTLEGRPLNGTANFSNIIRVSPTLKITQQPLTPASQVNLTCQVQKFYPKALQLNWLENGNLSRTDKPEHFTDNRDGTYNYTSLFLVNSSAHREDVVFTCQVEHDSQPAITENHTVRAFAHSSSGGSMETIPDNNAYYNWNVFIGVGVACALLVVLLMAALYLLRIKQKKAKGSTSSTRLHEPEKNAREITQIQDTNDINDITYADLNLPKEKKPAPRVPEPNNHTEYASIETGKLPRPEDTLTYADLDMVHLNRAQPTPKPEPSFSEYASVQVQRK

mouse SIRPα on cells = target: T5, mouse SIRPα on cells (mouse, UniProt P97797 32-513); experiment: flow cytometry on Mouse SIRPα-CHO-K1 cells
T5 construct: whole, on cells; also called mouse SIRPα-CHO-K1; Ms SIRPα-CHO-K1
T5 sequence (looked up): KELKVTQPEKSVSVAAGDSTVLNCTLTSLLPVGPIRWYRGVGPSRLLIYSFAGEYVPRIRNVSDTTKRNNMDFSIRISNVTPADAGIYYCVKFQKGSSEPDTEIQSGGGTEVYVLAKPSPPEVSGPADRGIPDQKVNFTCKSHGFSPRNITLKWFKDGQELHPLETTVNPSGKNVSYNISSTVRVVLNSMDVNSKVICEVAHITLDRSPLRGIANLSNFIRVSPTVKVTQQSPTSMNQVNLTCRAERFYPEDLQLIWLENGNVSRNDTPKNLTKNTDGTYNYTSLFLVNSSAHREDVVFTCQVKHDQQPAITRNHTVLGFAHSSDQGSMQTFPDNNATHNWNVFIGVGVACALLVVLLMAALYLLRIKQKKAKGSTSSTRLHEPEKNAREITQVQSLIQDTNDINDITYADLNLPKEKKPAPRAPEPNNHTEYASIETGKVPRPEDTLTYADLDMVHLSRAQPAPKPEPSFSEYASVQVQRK

[4] = target: T6, SIRPβ extracellular domain (human, UniProt O00241 30-371); experiment: SPR Biacore T200, antibody on Protein A chip, 1:1 Langmuir fit
T6 construct: also called hSIRPβ - ECD
T6 chain: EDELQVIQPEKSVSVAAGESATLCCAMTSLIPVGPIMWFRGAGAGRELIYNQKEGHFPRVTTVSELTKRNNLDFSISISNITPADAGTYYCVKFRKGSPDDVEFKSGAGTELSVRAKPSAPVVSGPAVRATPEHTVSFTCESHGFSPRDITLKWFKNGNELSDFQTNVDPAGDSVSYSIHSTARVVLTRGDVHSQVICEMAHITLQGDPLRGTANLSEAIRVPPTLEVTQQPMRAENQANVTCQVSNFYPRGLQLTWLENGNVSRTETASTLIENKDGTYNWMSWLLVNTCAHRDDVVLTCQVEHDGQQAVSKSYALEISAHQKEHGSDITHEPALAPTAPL

[5] = target: T7, SIRPγ extracellular domain (human, UniProt Q9P1W8 29-360); experiment: as above
T7 construct: also called hSIRPγ - ECD

[6] = target: T8, recombinant SIRPα protein (Novoprotein, catalog number C385) (human, UniProt P78324 31-370); experiment: SPR Biacore T200 competition in solution, SIRPα 20 nM, competitor immobilized CD47-ECD
T8 construct: also called human recombinant SIRPα protein; SIRPα antigen

B1: SIRPAB-11-K322A (antibody, human IgG1, kappa)
light: DIQMTQSPSSVSASVGDRVTITCRASQGISSWLAWYQQKPGKAPKLLIYAASNLQSGVPSRFSGSGSGTDFTLTISSLQPEDFATYYCQQGASFPITFGGGTKVEIKRTVAAPSVFIFPPSDEQLKSGTASVVCLLNNFYPREAKVQWKVDNALQSGNSQESVTEQDSKDSTYSLSSTLTLSKADYEKHKVYACEVTHQGLSSPVTKSFNRGEC
heavy: not shown
notes: human IgG1 with K322A (EU numbering); also called SIRPAB-11-IgG1-K322A; SIRPAB-11-K322A-AlexaFluor647
- EC50 of percent phagocytic macrophages; FaDu; donor 358; 0.2 nM cetuximab (human SIRPα on cells): 0.075 nM
- EC50 of percent phagocytic macrophages; FaDu; donor 358; 1 nM cetuximab (human SIRPα on cells): 0.049 nM
- EC50 of percent phagocytic macrophages; GP2d; donor 338; 0.2 nM cetuximab (human SIRPα on cells): 0.657 nM
- EC50 of percent phagocytic macrophages; GP2d; donor 338; 1 nM cetuximab (human SIRPα on cells): 0.495 nM
- EC50 of percent phagocytic macrophages; GP2d; donor 358; 0.2 nM cetuximab (human SIRPα on cells): 16.2 nM
- EC50 of percent phagocytic macrophages; GP2d; donor 358; 1 nM cetuximab (human SIRPα on cells): 0.247 nM
- EC50 of percent phagocytic macrophages; GP2d; mean; 0.2 nM cetuximab (human SIRPα on cells): 8.43 nM
- EC50 of percent phagocytic macrophages; GP2d; mean; 1 nM cetuximab (human SIRPα on cells): 0.371 nM
- EC50 of percent phagocytic macrophages; GP5d; donor 338; 0.2 nM cetuximab (human SIRPα on cells): 0.543 nM
- EC50 of percent phagocytic macrophages; GP5d; donor 338; 1 nM cetuximab (human SIRPα on cells): 0.714 nM
- EC50 of percent phagocytic macrophages; GP5d; donor 358; 0.2 nM cetuximab (human SIRPα on cells): 0.886 nM
- EC50 of percent phagocytic macrophages; GP5d; donor 358; 1 nM cetuximab (human SIRPα on cells): 0.162 nM
- EC50 of percent phagocytic macrophages; GP5d; mean; 0.2 nM cetuximab (human SIRPα on cells): 0.715 nM
- EC50 of percent phagocytic macrophages; GP5d; mean; 1 nM cetuximab (human SIRPα on cells): 0.438 nM
- EC50 of percent phagocytic macrophages; SW480; donor 338; 0.2 nM cetuximab (human SIRPα on cells): 0.2 nM
- EC50 of percent phagocytic macrophages; SW480; donor 338; 1 nM cetuximab (human SIRPα on cells): 0.461 nM
- EC50 of percent phagocytic macrophages; SW480; donor 358; 0.2 nM cetuximab (human SIRPα on cells): 2.06 nM
- EC50 of percent phagocytic macrophages; SW480; donor 358; 1 nM cetuximab (human SIRPα on cells): 0.102 nM
- EC50 of percent phagocytic macrophages; SW480; mean; 0.2 nM cetuximab (human SIRPα on cells): 1.13 nM
- EC50 of percent phagocytic macrophages; SW480; mean; 1 nM cetuximab (human SIRPα on cells): 0.282 nM
- EC50 (FcγR3A (CD16aV158) [1]): 795 nM
- EC50 (FcγR1 (CD64)): 0.79 nM
- EC50 (FcγR2B): 2710 nM
- EC50 (FcγR3A (CD16aV158) [2]): 142 nM
- binding result [3]: no binding (tested: 100 nM (Log nM 2))
- binding result (mouse SIRPα on cells): no binding (tested: 100 nM (Log nM 2))
- Kd [4]: 0.38 nM
- Kd [5]: 0.0632 nM
- IC50 [6]: 12.6 nM

From patent publication US20200102387A1 (CELGENE, published 2020)
